Publication PMC8387239, “Structural and functional characterization of the intracellular filament-forming nitrite oxidoreductase multiprotein complex” (Nature Microbiology, 2021)
Values belong to the molecule of their own block, whether it stands above or below them.

Legend:
[1] = target: T1, anammoxosomal tubules (NXR A, B, C and T subunits) (Candidatus Kuenenia stuttgartensis, UniProt Q1PZD8); assay: spectrophotometric, ferricyanide reduction at […] nm; format: biochemical; details: 2 mM sodium nitrite; 800 µM ferricyanide; 50 mM KPi, 150 mM NaCl, pH 7.25; 35 °C; without dodecyl maltoside
T1 construct: gene narG; native tubules purified from K. stuttgartiensis cells by size exclusion and sucrose density gradient; with nitrite oxidoreductase subunit B, iron-sulfur subunit (NarH-like); nitrite oxidoreductase subunit C, haem b-containing subunit; nitrite oxidoreductase tubule-inducing subunit T, monohaem cytochrome c

[2] = target: Broful_01488, NXR-T homologue from Brocadia fulgida, recombinant, N-terminal His-tag cleaved (Brocadia fulgida); assay: crystal structure; Broful_01488 after cleavage of the N-terminal His-tag; 0.02 M LiCl, 0.02 M glycine pH 10.0, 33% PEG 1000, 0.05 M MgCl2; 4.0-4.5 Å, partial model
[3] = target: NXR-T (Kustd1705), recombinant, as used for analytical ultracentrifugation (tagged version not stated) (Kuenenia stuttgartiensis); assay: AUC; sedimentation velocity and sedimentation equilibrium; 25 mM HEPES/KOH pH 7.5, 25 mM KCl; 25,000 or 30,000 r.p.m., 24 h, 20 °C; scans at 415 nm
[4] = target: NXR-T (Kustd1705), tubule-inducing NXR subunit, recombinant, N-terminal His-tag cleaved (Kuenenia stuttgartiensis); assay: cryo-EM structure; helical reconstruction of tubules reconstituted from KsNXR-ABC and Kustd1705, 5.8 Å after density modification
purified protein [5] = substrate: O=[N+]([O-])O; assay: purified protein; format: biochemical, Candidatus Kuenenia stuttgartensis; details: reduced methyl viologen as electron donor, 50 mM KPi, pH 7.2, 35 °C, anaerobic
purified protein [6] = substrate: O=NO; assay: purified protein; format: biochemical, Candidatus Kuenenia stuttgartensis; details: 800 µM ferricyanide as electron acceptor, 50 mM KPi, 150 mM NaCl, pH 7.25, 35 °C

T1 sequence (Q1PZD5 1-410 partner, one chain of several): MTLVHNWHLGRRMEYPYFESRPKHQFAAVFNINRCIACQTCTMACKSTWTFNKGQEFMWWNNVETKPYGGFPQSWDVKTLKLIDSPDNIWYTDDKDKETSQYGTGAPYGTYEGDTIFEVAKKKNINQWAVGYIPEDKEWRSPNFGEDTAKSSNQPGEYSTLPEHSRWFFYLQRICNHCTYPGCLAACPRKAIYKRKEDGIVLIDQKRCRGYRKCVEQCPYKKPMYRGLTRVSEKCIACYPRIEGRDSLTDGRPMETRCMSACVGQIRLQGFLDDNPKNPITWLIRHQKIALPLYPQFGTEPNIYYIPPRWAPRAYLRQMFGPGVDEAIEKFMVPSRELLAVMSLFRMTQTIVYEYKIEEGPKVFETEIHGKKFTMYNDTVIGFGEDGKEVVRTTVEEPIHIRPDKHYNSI
T1 sequence (Q1PZD4 29-322 partner, one chain of several): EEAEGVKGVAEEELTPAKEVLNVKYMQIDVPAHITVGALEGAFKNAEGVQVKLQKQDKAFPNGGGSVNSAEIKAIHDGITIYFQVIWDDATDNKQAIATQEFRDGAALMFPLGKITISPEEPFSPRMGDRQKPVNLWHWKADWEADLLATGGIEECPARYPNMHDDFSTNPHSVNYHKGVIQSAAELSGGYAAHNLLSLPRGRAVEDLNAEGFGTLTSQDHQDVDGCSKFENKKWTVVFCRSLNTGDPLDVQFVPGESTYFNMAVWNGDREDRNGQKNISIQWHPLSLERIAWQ
T1 sequence (A0A2C9CDL6 21-180 partner, one chain of several): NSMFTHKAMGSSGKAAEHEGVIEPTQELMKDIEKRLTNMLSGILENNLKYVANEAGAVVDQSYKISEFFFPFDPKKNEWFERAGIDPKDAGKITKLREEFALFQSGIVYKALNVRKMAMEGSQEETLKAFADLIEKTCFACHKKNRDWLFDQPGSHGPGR

Molecule: O=NO [nitrite]
- spectrophotometric, ferricyanide reduction at 420 nm [1]: can be disassembled by adding the detergent dodecyl maltoside, show nitrite oxidation activity

- stoichiometry N [2]: 2
Molecule: Broful_01488, NXR-T homologue from Brocadia fulgida, recombinant, N-terminal His-tag cleaved (natural protein)

- stoichiometry N [3]: 2
Molecule: NXR-T (Kustd1705), recombinant, as used for analytical ultracentrifugation (tagged version not stated) (natural protein)

- stoichiometry N [4]: 2
Molecule: NXR-T (Kustd1705), tubule-inducing NXR subunit, recombinant, N-terminal His-tag cleaved (natural protein)

B1: KsNXR-ABC (Candidatus Kuenenia stuttgartensis) (protein)
chain: FRLLKPAVVVDNPLDTYPDRRWESVYRDQYQYDRTFTYCCSPNDTHACRIRAFVRNNVMMRVEQNYDHQNYSDLYGNKATRNWNPRMCLKGYTFHRRVYGPYRLRYPLIRKGWKRWADDGFPELTPENKTKYMFDNRGNDELLRASWDEAFTYASKGIIHITKKYSGPEGAQKLIDQGYPKEMVDRMQGAGTRTFKGRGGMGLLGVIGKYGMYRFNNCLAIVDAHNRGVGPDQALGGRNWSNYTWHGDQAPGHPFSHGLQTSDVDMNDVRFSKLLIQTGKNLIENKMPEAHWVTEVMERGGKIVVITPEYSPSAQKADYWIPIRNNTDTALFLGITKILIDNKWYDADYVKKFTDFPLLIRTDTLKRVSPKDIIPNYKLQDISDGPSYHIQGLKDEQREIIGDFVVWDAKSKGPKAITRDDVGETLVKKGIDPVLEGSFKLKTIDGKEIEVMTLLEMYKIHLRDYDIDSVVSMTNSPKDLIERLAKDIATIKPVAIHYGEGVNHYFHATLMNRSYYLPVMLTGNVGYFGSGSHTWAGNYKAGNFQASKWSGPGFYGWVAEDVFKPNLDPYASAKDLNIKGRALDEEVAYWNHSERPLIVNTPKYGRKVFTGKTHMPSPTKVLWFTNVNLINNAKHVYQMLKNVNPNIEQIMSTDIEITGSIEYADFAFPANSWVEFQEFEITNSCSNPFIQIWGKTGITPVYESKDDVKILAGMASKLGELLRDKRFEDNWKFAIEGRASVYINRLLDGSTTMKGYTCEDILNGKYGEPGVAMLLFRTYPRHPFWEQVHESLPFYTPTGRLQAYNDEPEIIEYGENFIVHREGPEATPYLPNAIVSTNPYIRPDDYGIPENAEYWEDRTVRNIKKSWEETKKTKNFLWEKGYHFYCVTPKSRHTVHSQWAVTDWNFIWNNNFGDPYRMDKRMPGVGEHQIHIHPQAARDLGIEDGDYVYVDANPADRPYEGWKPNDSFYKVSRLMLRAKYNPAYPYNCTMMKHSAWISSDKTVQAHETRPDGRALSPSGYQSSFRYGSQQSITRDWSMPMHQLDSLFHKAKIGMKFIFGFEADNHCINTVPKETLVKITKAENGGMGGKGVWDPVKTGYTAGNENDFMKKFLNGELIKVDA
notes: untagged; with nitrite oxidoreductase subunit B, iron-sulfur subunit (NarH-like); nitrite oxidoreductase subunit C, haem b-containing subunit
- Km (purified protein [5]): 14 ± 1 µM
- Km (purified protein [6]): 22 ± 5 µM
